Source: article PMC4365169 (Nature Communications, 2014)

Target: actin filaments (F-actin, rabbit skeletal muscle) (rabbit, UniProt P68135 1-377)
Experiment: co-sedimentation

B1: GFP–TipAct (other)
chain: DERDRVQKKTFTKWVNKHLMKVRKHINDLYEDLRDGHNLISLLEVLSGIKLPREKGRMRFHRLQNVQIALDFLKQRQVKLVNIRNDDITDGNPKLTLGLIWTIILHFQISDIYISGESGDMSAKEKLLLWTQKVTAGYTGIKCTNFSSCWSDGKMFNALIHRYRPDLVDMERVQIQSNRENLEQAFEVAERLGVTRLLDAEDVDVPSPDEKSVITYVSSIYDAFPKVPEGGEGEMANRLAGLENSLESEKVSREQLIKQKDQLNSLLASLESEGAEREKRLRELEAKLDETLKNLELEKLARMELEARLAKTEKDRAILELKLAEAIDEKSKLEESSAAGGQGNSRRGLNKPSKIPTMSKKTTTASPRTPGPKR
Kd: ~5 µM
